The results in this text go back to PMC10673981.

This assay deals with retinal guanylate cyclase GC1, eGFP fusion (mGFP-GC1 cells) (human) (UniProt Q02846).
Sequence of UniProt Q02846 (Q02846 52-1103): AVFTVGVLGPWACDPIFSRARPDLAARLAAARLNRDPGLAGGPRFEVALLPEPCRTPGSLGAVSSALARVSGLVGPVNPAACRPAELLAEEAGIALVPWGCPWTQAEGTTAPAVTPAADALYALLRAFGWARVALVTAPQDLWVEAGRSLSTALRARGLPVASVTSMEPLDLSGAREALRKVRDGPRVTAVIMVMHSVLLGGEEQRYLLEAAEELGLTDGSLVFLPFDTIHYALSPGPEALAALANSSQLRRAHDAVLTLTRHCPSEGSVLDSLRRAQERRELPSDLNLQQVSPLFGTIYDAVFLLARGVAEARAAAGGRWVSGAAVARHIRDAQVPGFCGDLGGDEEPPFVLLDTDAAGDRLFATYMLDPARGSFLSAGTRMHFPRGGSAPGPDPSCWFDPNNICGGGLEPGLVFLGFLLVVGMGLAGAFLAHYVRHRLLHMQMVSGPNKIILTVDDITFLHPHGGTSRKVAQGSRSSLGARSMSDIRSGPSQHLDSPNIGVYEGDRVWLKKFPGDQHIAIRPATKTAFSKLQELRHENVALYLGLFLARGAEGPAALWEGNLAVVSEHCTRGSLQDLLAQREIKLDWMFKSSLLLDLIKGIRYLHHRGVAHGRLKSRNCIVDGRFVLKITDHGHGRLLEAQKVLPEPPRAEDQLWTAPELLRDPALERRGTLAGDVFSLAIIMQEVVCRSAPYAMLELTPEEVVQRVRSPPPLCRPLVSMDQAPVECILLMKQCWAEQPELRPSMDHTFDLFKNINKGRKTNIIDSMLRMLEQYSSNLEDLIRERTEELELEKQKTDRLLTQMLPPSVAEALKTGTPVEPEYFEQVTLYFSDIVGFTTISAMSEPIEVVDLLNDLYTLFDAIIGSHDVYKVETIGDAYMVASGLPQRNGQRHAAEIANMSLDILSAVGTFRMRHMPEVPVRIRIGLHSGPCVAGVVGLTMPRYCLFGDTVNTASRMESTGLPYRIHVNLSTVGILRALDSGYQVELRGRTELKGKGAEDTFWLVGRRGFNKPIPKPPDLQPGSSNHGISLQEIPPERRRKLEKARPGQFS

For the substance “Human myristoylated WT-GCAP1 (guanylate cyclase-activating protein 1) (from UniProt P43080 1-201) (natural protein)”, the EC50: GCAP1 concentration (0–20 µM) at which cGMP synthesis by GC1 in HEK293 cell membranes is half-maximal, at low Ca2+ (< 19 nM) came out at 1880 nM.

“E111V-GCAP1 (cone-rod dystrophy-associated variant of human GCAP1) (from UniProt P43080 1-201) (natural protein)” came in with an EC50: GCAP1 concentration (0–20 µM) at which cGMP synthesis by GC1 in HEK293 cell membranes is half-maximal, at low Ca2+ (< 19 nM) of 1550 nM.
